Test results from publication PMC6555819, “Comprehensive study of nuclear receptor DNA binding provides a revised framework for understanding receptor specificity”.
Positions count from the first letter of the chain named.

B1: NRC3_wobSeed17_DR0_T18C_o1 (dsDNA)
DNA 1: GCATATGTAGGTTAGGGCCATTCAGAAAGTAGGGAAGCGATTGACAGCGTAGAATGAAGG
DNA 2: CCTTCATTCTACGCTGTCAATCGCTTCCCTACTTTCTGAATGGCCCTAACCTACATATGC
B2: NRC3_wobSeed17_DR0_T18A_o1 (dsDNA)
DNA 1: B1 DNA 1 with C18A
DNA 2: B1 DNA 2 with G43T
B3: NRC3_wobSeed119_DR4_G27A_o1 (dsDNA)
DNA 1: GCGGAACGAGGGCATTCGAGTTGATAACATGGCGATGCGATTGACAGCGTAGAATGAAGG
DNA 2: CCTTCATTCTACGCTGTCAATCGCATCGCCATGTTATCAACTCGAATGCCCTCGTTCCGC
B4: NRC3_wobSeed58_DR2_C13G_o1 (dsDNA)
DNA 1: GCATCGAAAGGTGGTGAGGTGAGTATACAGAAAGGCGCGATTGACAGCGTAGAATGAAGG
DNA 2: CCTTCATTCTACGCTGTCAATCGCGCCTTTCTGTATACTCACCTCACCACCTTTCGATGC
B5: NRC3_wobSeed98_DR4_G20T_o1 (dsDNA)
DNA 1: GCACTAGTTGGTCAGCTGATGTCACACACAATTCGGGCGATTGACAGCGTAGAATGAAGG
DNA 2: CCTTCATTCTACGCTGTCAATCGCCCGAATTGTGTGTGACATCAGCTGACCAACTAGTGC
B6: NRC3_wobSeed5_DR0_C24G_o1 (dsDNA)
DNA 1: GCCCTTACGGGTCAAGGTTATAGGACGGGTGGTACGGCGATTGACAGCGTAGAATGAAGG
DNA 2: CCTTCATTCTACGCTGTCAATCGCCGTACCACCCGTCCTATAACCTTGACCCGTAAGGGC
B7: NRC3_wobSeed5_DR0_T6A_o1 (dsDNA)
DNA 1: B6 DNA 1 with T6A, G24C
DNA 2: B6 DNA 2 with C37G, A55T
B8: NRC3_wobSeed110_DR4_C7A_o1 (dsDNA)
DNA 1: GCTCTGATAGGTCAACGATGGTCAGCTAATCTGCTAGCGATTGACAGCGTAGAATGAAGG
DNA 2: CCTTCATTCTACGCTGTCAATCGCTAGCAGATTAGCTGACCATCGTTGACCTATCAGAGC
B9: NRC3_wobSeed99_DR4_T5C_o1 (dsDNA)
DNA 1: GCTCCCGGAGGACACGAAAGGTCAGAGCTCGACATCGCGATTGACAGCGTAGAATGAAGG
DNA 2: CCTTCATTCTACGCTGTCAATCGCGATGTCGAGCTCTGACCTTTCGTGTCCTCCGGGAGC
B10: NRC3_wobSeed61_DR2_G10T_o1 (dsDNA)
DNA 1: GCCGTCCAATGTCAGCAGGTCAGTGAAAGCGACGTGGCGATTGACAGCGTAGAATGAAGG
DNA 2: CCTTCATTCTACGCTGTCAATCGCCACGTCGCTTTCACTGACCTGCTGACATTGGACGGC
B11: NRC3_wobSeed74_DR3_G17T_o1 (dsDNA)
DNA 1: GCTCTAGTTGGTCACGTAGGTCACACACGACGGGTAGCGATTGACAGCGTAGAATGAAGG
DNA 2: CCTTCATTCTACGCTGTCAATCGCTACCCGTCGTGTGTGACCTACGTGACCAACTAGAGC
B12: NRC3_wobSeed74_DR3_G20C_o1 (dsDNA)
DNA 1: B11 DNA 1 with T17G, G20C
DNA 2: B11 DNA 2 with C41G, A44C
B13: NRC3_wobSeed130_DR5_G14T_o1 (dsDNA)
DNA 1: GCCTCGAAAGGTCTTGCTCAGGTGAGTATACCAAACGCGATTGACAGCGTAGAATGAAGG
DNA 2: CCTTCATTCTACGCTGTCAATCGCGTTTGGTATACTCACCTGAGCAAGACCTTTCGAGGC
B14: NRC3_wobSeed93_DR3_T12A_o1 (dsDNA)
DNA 1: GCAGTCAAAGTACATCTAGGTAACGTAAGATATGCTGCGATTGACAGCGTAGAATGAAGG
DNA 2: CCTTCATTCTACGCTGTCAATCGCAGCATATCTTACGTTACCTAGATGTACTTTGACTGC
B15: NRC3_wobSeed4_DR0_T22C_o1 (dsDNA)
DNA 1: GCCCTACTGGGCCAAGGTCATCGATCAGTCAAAGCAGCGATTGACAGCGTAGAATGAAGG
DNA 2: CCTTCATTCTACGCTGTCAATCGCTGCTTTGACTGATCGATGACCTTGGCCCAGTAGGGC
B16: NRC3_wobSeed6_DR0_T22A_o1 (dsDNA)
DNA 1: GCCCTAGCAGGCCAGGGTCACACAAGCATTTCGCTTGCGATTGACAGCGTAGAATGAAGG
DNA 2: CCTTCATTCTACGCTGTCAATCGCAAGCGAAATGCTTGTGTGACCCTGGCCTGCTAGGGC
B17: NRC3_wobSeed125_DR5_G21T_o1 (dsDNA)
DNA 1: GCCCTTACGGGTCACTGACATGTTATAGCATTTGGAGCGATTGACAGCGTAGAATGAAGG
DNA 2: CCTTCATTCTACGCTGTCAATCGCTCCAAATGCTATAACATGTCAGTGACCCGTAAGGGC
B18: NRC3_wobSeed125_DR5_G11C_o1 (dsDNA)
DNA 1: B17 DNA 1 with G11C, T21G
DNA 2: B17 DNA 2 with A40C, C50G
B19: NRC3_wobSeed125_DR5_G10C_o1 (dsDNA)
DNA 1: B17 DNA 1 with G10C, T21G
DNA 2: B17 DNA 2 with A40C, C51G
B20: NRC3_wobSeed125_DR5_T6C_o1 (dsDNA)
DNA 1: B17 DNA 1 with T6C, T21G
DNA 2: B17 DNA 2 with A40C, A55G
B21: NRC3_wobSeed137_DR5_A14T_o1 (dsDNA)
DNA 1: GCATATGTAGGTTTCATCCGGGTCATTCAGGCTATGGCGATTGACAGCGTAGAATGAAGG
DNA 2: CCTTCATTCTACGCTGTCAATCGCCATAGCCTGAATGACCCGGATGAAACCTACATATGC
B22: NRC3_wobSeed100_DR4_A14C_o1 (dsDNA)
DNA 1: GCCCTACTGGGCCCCGAAAGGTCATTGATTCAGTGAGCGATTGACAGCGTAGAATGAAGG
DNA 2: CCTTCATTCTACGCTGTCAATCGCTCACTGAATCAATGACCTTTCGGGGCCCAGTAGGGC
B23: NRC3_wobSeed144_DR5_T19G_o1 (dsDNA)
DNA 1: GCTCGAGTAGGTTACCAAGGGGGCATTCAGCTTTCTGCGATTGACAGCGTAGAATGAAGG
DNA 2: CCTTCATTCTACGCTGTCAATCGCAGAAAGCTGAATGCCCCCTTGGTAACCTACTCGAGC
B24: NRC3_wobSeed88_DR3_T25A_o1 (dsDNA)
DNA 1: GCTAGCCTAGGTCATGCGGGCCAGAATAGTGTCGGCGCGATTGACAGCGTAGAATGAAGG
DNA 2: CCTTCATTCTACGCTGTCAATCGCGCCGACACTATTCTGGCCCGCATGACCTAGGCTAGC
B25: NRC3_wobSeed88_DR3_A28G_o1 (dsDNA)
DNA 1: B24 DNA 1 with A25T, A28G
DNA 2: B24 DNA 2 with T33C, T36A
B26: NRC3_wobSeed81_DR3_C22G_o1 (dsDNA)
DNA 1: GCATCTCTAGGTAACCAAGTTGAGTGAATGCCGAACGCGATTGACAGCGTAGAATGAAGG
DNA 2: CCTTCATTCTACGCTGTCAATCGCGTTCGGCATTCACTCAACTTGGTTACCTAGAGATGC
B27: NRC3_wobSeed81_DR3_C22A_o1 (dsDNA)
DNA 1: B26 DNA 1 with G22A
DNA 2: B26 DNA 2 with C39T
B28: NRC3_wobSeed114_DR4_G10T_o1 (dsDNA)
DNA 1: GCAATACAGTGTCATCGTAGGCCAGAGTACGCACAGGCGATTGACAGCGTAGAATGAAGG
DNA 2: CCTTCATTCTACGCTGTCAATCGCCTGTGCGTACTCTGGCCTACGATGACACTGTATTGC
B29: NRC3_wobSeed114_DR4_G11A_o1 (dsDNA)
DNA 1: B28 DNA 1 with T10G, G11A
DNA 2: B28 DNA 2 with C50T, A51C
B30: NRC3_wobSeed69_DR2_C6G_o1 (dsDNA)
DNA 1: GCAGTGAAAGTTCACTAGGTAACGTAAGATTCAGCTGCGATTGACAGCGTAGAATGAAGG
DNA 2: CCTTCATTCTACGCTGTCAATCGCAGCTGAATCTTACGTTACCTAGTGAACTTTCACTGC
B31: NRC3_wobSeed142_DR5_A5G_o1 (dsDNA)
DNA 1: GCATGCCAAGGTGATCGTGAGGTCGTTGATACTAACGCGATTGACAGCGTAGAATGAAGG
DNA 2: CCTTCATTCTACGCTGTCAATCGCGTTAGTATCAACGACCTCACGATCACCTTGGCATGC
B32: NRC3_wobSeed142_DR5_G21T_o1 (dsDNA)
DNA 1: B31 DNA 1 with G5A, G21T
DNA 2: B31 DNA 2 with C40A, C56T
B33: NRC3_wobSeed46_DR1_A15T_o1 (dsDNA)
DNA 1: GCTTACCAAGGTGATAGGTCGTTGATGCACGCCTTGGCGATTGACAGCGTAGAATGAAGG
DNA 2: CCTTCATTCTACGCTGTCAATCGCCAAGGCGTGCATCAACGACCTATCACCTTGGTAAGC

These binders were tested against VDR:RXRa (Homo sapiens, UniProt P11473;P19793 full;full) (assay: no ligand; PBM; 270 nM : 90 nM RXRa; PBS pH 7.4, 2% milk, 0.02% Triton X-100, 1 mM DTT, BSA, 0.4 mg/ml salmon testes DNA). Conditions: tags: His kept;His cleaved; copies: 1;1; label: surface-attached array probe.
Sequence of VDR:RXRa (P11473 whole entry, chain 1 of 2): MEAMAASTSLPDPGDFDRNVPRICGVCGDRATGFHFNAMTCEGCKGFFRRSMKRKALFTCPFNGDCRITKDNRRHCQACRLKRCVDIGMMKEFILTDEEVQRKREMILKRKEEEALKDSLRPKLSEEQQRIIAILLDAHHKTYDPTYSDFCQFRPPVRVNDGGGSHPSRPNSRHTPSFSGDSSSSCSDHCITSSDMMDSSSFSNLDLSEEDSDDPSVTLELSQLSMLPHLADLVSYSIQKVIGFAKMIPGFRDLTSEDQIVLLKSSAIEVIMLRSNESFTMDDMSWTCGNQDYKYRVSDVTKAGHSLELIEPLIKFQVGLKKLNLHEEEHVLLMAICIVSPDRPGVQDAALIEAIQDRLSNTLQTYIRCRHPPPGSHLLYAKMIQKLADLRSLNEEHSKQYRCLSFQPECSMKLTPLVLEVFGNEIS
Sequence of VDR:RXRa (P19793 whole entry, chain 2 of 2): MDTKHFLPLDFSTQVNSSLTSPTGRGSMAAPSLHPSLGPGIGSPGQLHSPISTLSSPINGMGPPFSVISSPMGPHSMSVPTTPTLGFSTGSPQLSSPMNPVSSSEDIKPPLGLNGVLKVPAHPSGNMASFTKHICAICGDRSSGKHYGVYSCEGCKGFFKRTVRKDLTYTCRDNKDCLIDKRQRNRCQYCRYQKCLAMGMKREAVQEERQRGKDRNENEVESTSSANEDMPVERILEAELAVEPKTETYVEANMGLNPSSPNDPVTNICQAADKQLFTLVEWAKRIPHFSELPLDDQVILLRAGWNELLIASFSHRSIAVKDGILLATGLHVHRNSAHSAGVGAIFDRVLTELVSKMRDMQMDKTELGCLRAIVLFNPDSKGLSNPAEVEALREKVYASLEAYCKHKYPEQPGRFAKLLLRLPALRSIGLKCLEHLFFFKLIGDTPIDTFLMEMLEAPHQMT
Method in brief: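 Probes were double-stranded and carried 34-nt variable regions with direct-repeat seeds, single-nucleotide variants, half-site ablations and random human genomic background sequences, printed on custom Agilent 4×180K protein-binding microarrays. Arrays were incubated 1 h with ligand-free nuclear receptor dimers in PBS pH 7.4, 2% milk, 0.02% Triton X-100, 1 mM DTT, 0.2 mg/mL BSA and 0.4 mg/ml salmon testes DNA. Antibodies against each partner (one per run) detected binding, and scanned fluorescence was regression-normalized. Binding z-scores use the random background probes as reference.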

Binder	binding signal
B1	0.42 PBM z-score against 500 random probes
B2	0.41 PBM z-score against 500 random probes
B3	3.42 PBM z-score against 500 random probes
B4	0.28 PBM z-score against 500 random probes
B5	0.23 PBM z-score against 500 random probes
B6	3.5 PBM z-score against 500 random probes
B7	3.06 PBM z-score against 500 random probes
B8	3.1 PBM z-score against 500 random probes
B9	3.26 PBM z-score against 500 random probes
B10	0.44 PBM z-score against 500 random probes
B11	3.15 PBM z-score against 500 random probes
B12	0.37 PBM z-score against 500 random probes
B13	0.2 PBM z-score against 500 random probes
B14	0.15 PBM z-score against 500 random probes
B15	3.17 PBM z-score against 500 random probes
B16	3.03 PBM z-score against 500 random probes
B17	3.4 PBM z-score against 500 random probes

Binder	binding signal
B18	0.16 PBM z-score against 500 random probes
B19	0.17 PBM z-score against 500 random probes
B20	3.38 PBM z-score against 500 random probes
B21	3.52 PBM z-score against 500 random probes
B22	3.44 PBM z-score against 500 random probes
B23	3.47 PBM z-score against 500 random probes
B24	3.12 PBM z-score against 500 random probes
B25	3 PBM z-score against 500 random probes
B26	0.49 PBM z-score against 500 random probes
B27	0.37 PBM z-score against 500 random probes
B28	0.5 PBM z-score against 500 random probes
B29	0.25 PBM z-score against 500 random probes
B30	3.33 PBM z-score against 500 random probes
B31	3.08 PBM z-score against 500 random probes
B32	0.3 PBM z-score against 500 random probes
B33	0.48 PBM z-score against 500 random probes
